Measurements published in US20150344570A1 (published 2015).

T1: FcγRIIa H (FcγRIIa type H, His at position 131), extracellular domain with C-terminal His tag (human, UniProt P12318 34-217)
T1 construct: extracellular domain; expressed in FreeStyle293 cells; also called FcgRIIa H; 2aH; not shown: His tag attached to the C terminus
T1 sequence (looked up): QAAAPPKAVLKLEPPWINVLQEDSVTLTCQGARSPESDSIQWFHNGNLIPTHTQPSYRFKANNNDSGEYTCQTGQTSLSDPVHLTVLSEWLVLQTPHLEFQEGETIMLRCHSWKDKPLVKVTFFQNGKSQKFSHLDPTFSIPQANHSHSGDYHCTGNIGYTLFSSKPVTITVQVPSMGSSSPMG

T2: FcγRIIb extracellular domain with C-terminal His tag (human, UniProt P31994 43-217)
T2 construct: extracellular domain; Soluble receptor used as analyte in Biacore; also called FcgRIIb
T2 sequence (looked up): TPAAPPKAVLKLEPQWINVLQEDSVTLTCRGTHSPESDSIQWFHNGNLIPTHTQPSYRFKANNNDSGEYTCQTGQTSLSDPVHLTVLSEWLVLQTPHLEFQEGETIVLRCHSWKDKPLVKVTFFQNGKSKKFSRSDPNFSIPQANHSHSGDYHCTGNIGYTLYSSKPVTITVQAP

T3: FcγRIIb, extracellular domain with C-terminal His tag (human, UniProt P31994 43-217)
T3 construct: extracellular domain; expressed in FreeStyle293 cells; also called FcgRIIb; 2b; not shown: His tag attached to the C terminus
T3 sequence (looked up): T2 sequence (looked up)

B1: GpH7-A5/GpH7-B3 variant V266_12R/GpL16-k0 (antibody, human IgG1, kappa)
heavy 1: not shown
heavy 2: not shown
light: DIVMTQSPLSLPVTPGEPASISCQASESLVHSNRNTYLHWYLQKPGQSPQLLIYKVSNRFSGVPDRFSGSGSGTDFTLKISRVEAEDVGVYYCSQNTHVPPTFGQGTKVEIERTVAAPSVFIFPPSDEQLKSGTASVVCLLNNFYPREAKVQWKVDNALQSGNSQESVTEQDSKDSTYSLSSTLTLSKADYEKHKVYACEVTHQGLSSPVTKSFNRGEC
notes: Heterodimerized IgG1, mutation in the GpH7-B3 chain only; also called He Ab
B2: GpH7-A5/GpH7-B3 variant V266_08L/GpL16-k0 (antibody, human IgG1, kappa)
heavy 1: not shown
heavy 2: not shown
light: B1 light
notes: as for B1
B3: GpH7-A5/GpH7-B3 variant V266_07I/GpL16-k0 (antibody, human IgG1, kappa)
heavy 1: not shown
heavy 2: not shown
light: B1 light
notes: as for B1
B4: GpH7-A5/GpH7-B3 variant P238_07I/GpL16-k0 (antibody, human IgG1, kappa)
heavy 1: not shown
heavy 2: not shown
light: B1 light
notes: Heterodimerized antibody (He Ab): mutation in the GpH7-B3 chain only; also called He Ab
B5: GpH7-A5/GpH7-B3 variant P238_14T/GpL16-k0 (antibody, human IgG1, kappa)
heavy 1: not shown
heavy 2: not shown
light: B1 light
notes: as for B4
B6: GpH7-A5/GpH7-B3 variant P238_10E/GpL16-k0 (antibody, human IgG1, kappa)
heavy 1: not shown
heavy 2: not shown
light: B1 light
notes: as for B4
B7: GpH7-A5/GpH7-B3 variant P238_18N/GpL16-k0 (antibody, human IgG1, kappa)
heavy 1: not shown
heavy 2: not shown
light: B1 light
notes: as for B4
B8: GpH7-A5/GpH7-B3 variant P238_13S/GpL16-k0 (antibody, human IgG1, kappa)
heavy 1: not shown
heavy 2: not shown
light: B1 light
notes: as for B4
B9: GpH7-A5/GpH7-B3 variant S239_09D/GpL16-k0 (antibody, human IgG1, kappa)
heavy 1: not shown
heavy 2: not shown
light: B1 light
notes: as for B4
B10: GpH7-A5/GpH7-B3 variant P238_09D/GpL16-k0 (antibody, human IgG1, kappa)
heavy 1: not shown
heavy 2: not shown
light: B1 light
notes: as for B4
B11: GpH7-A5/GpH7-B3 variant P238_16H/GpL16-k0 (antibody, human IgG1, kappa)
heavy 1: not shown
heavy 2: not shown
light: B1 light
notes: as for B4
B12: GpH7-A5/GpH7-B3 variant P238_20W/GpL16-k0 (antibody, human IgG1, kappa)
heavy 1: not shown
heavy 2: not shown
light: B1 light
notes: as for B4
B13: GpH7-A5/GpH7-B3 variant P238_08L/GpL16-k0 (antibody, human IgG1, kappa)
heavy 1: not shown
heavy 2: not shown
light: B1 light
notes: as for B4
B14: GpH7-A5/GpH7-B3 variant S239_18N/GpL16-k0 (antibody, human IgG1, kappa)
heavy 1: not shown
heavy 2: not shown
light: B1 light
notes: as for B4
B15: GpH7-A5/GpH7-B3 variant S239_05P/GpL16-k0 (antibody, human IgG1, kappa)
heavy 1: not shown
heavy 2: not shown
light: B1 light
notes: as for B4
B16: GpH7-A5/GpH7-B3 variant P238_19Q/GpL16-k0 (antibody, human IgG1, kappa)
heavy 1: not shown
heavy 2: not shown
light: B1 light
notes: as for B4
B17: GpH7-A5/GpH7-B3 variant S239_10E/GpL16-k0 (antibody, human IgG1, kappa)
heavy 1: not shown
heavy 2: not shown
light: B1 light
notes: as for B4
B18: GpH7-A5/GpH7-B3 variant S239_01G/GpL16-k0 (antibody, human IgG1, kappa)
heavy 1: not shown
heavy 2: not shown
light: B1 light
notes: as for B4
B19: GpH7-A5/GpH7-B3 variant P238_15Y/GpL16-k0 (antibody, human IgG1, kappa)
heavy 1: not shown
heavy 2: not shown
light: B1 light
notes: as for B4
B20: GpH7-A5/GpH7-B3 variant S239_08L/GpL16-k0 (antibody, human IgG1, kappa)
heavy 1: not shown
heavy 2: not shown
light: B1 light
notes: as for B4
B21: GpH7-A5/GpH7-B3 variant I332_02A/GpL16-k0 (antibody, human IgG1, kappa)
heavy 1: not shown
heavy 2: not shown
light: B1 light
notes: as for B1
B22: GpH7-A5/GpH7-B3 variant I332_04F/GpL16-k0 (antibody, human IgG1, kappa)
heavy 1: not shown
heavy 2: not shown
light: B1 light
notes: as for B1
B23: GpH7-A5/GpH7-B3 variant I332_06M/GpL16-k0 (antibody, human IgG1, kappa)
heavy 1: not shown
heavy 2: not shown
light: B1 light
notes: as for B1
B24: GpH7-A5/GpH7-B3 variant P331_20W/GpL16-k0 (antibody, human IgG1, kappa)
heavy 1: not shown
heavy 2: not shown
light: B1 light
notes: as for B1
B25: GpH7-A5/GpH7-B3 variant I332_14T/GpL16-k0 (antibody, human IgG1, kappa)
heavy 1: not shown
heavy 2: not shown
light: B1 light
notes: as for B1
B26: GpH7-A5/GpH7-B3 variant I332_15Y/GpL16-k0 (antibody, human IgG1, kappa)
heavy 1: not shown
heavy 2: not shown
light: B1 light
notes: as for B1

Molecular target: T4, FcγRIa extracellular domain with C-terminal His tag (human, UniProt P12314 16-292)
T4 construct: extracellular domain; Soluble receptor used as analyte in Biacore; also called FcgRI
Experiment: ratio He/Con_1a : He/Con_2b (FcγRIa over FcγRIIb), SPR (Biacore)

T4 sequence (P12314 16-292): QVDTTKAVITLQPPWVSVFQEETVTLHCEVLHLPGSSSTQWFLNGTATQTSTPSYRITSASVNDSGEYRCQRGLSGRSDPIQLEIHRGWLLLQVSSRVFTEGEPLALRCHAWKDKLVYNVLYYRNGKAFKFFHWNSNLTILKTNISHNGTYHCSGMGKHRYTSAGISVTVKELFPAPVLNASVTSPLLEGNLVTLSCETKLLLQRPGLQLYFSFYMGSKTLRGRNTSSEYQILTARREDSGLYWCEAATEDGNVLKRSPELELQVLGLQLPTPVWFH

Row | Binder | He_1a/2b (Ia/IIb)
1 | B1 | -55.6
2 | B2 | 0.42
3 | B3 | 0.65

Molecular target: T1, FcγRIIa H (FcγRIIa type H, His at …)
Experiment: SPR (Biacore); He/Con_2aH divided by He/Con_2b (FcγRIIa H against FcγRIIb)

Row | Binder | He_2aH/2b (IIaH/IIb) [ratio]
4 | B4 | 0.72
5 | B5 | 0.74
6 | B6 | 0.33
7 | B7 | 0.73
8 | B8 | 0.72
9 | B9 | 0.56
10 | B10 | 0.4
11 | B11 | 0.4
12 | B12 | 0.49
13 | B13 | 0.41
14 | B14 | 0.79
15 | B15 | 0.33
16 | B16 | 0.51
17 | B17 | 0.62
18 | B18 | 0.67
19 | B19 | 0.27
20 | B20 | 0.75

Molecular target: T4, FcγRIa extracellular domain with …
Experiment: SPR (Biacore), antibody captured, FcγR as analyte; binding relative to GpH7-A5/GpH7-B3/GpL16-k0 = 100

Row | Binder | He/Con_1a [control = 100]
21 | B1 | 59.2
22 | B2 | 98.1
23 | B3 | 99.3

Molecular target: T2, FcγRIIb extracellular domain with …
Experiment: as above

Row | Binder | He/Con_2b [control = 100]
24 | B1 | -1.1
25 | B2 | 236
26 | B3 | 152

Molecular target: T4, FcγRIa extracellular domain with …
Experiment: as above
Remark: another data set of the same source

Row | Binder | He/Con_1a [control = 100]
27 | B21 | 88.3
28 | B22 | 93.6
29 | B23 | 92.3
30 | B24 | 94.5
31 | B25 | 91.8
32 | B26 | 88.8

Molecular target: T2, FcγRIIb extracellular domain with …
Experiment: as above
Remark: another data set of the same source

Row | Binder | He/Con_2b [control = 100]
33 | B21 | 103
34 | B22 | 104
35 | B23 | 105
36 | B24 | 111
37 | B25 | 106
38 | B26 | 101

Molecular target: T1, FcγRIIa H (FcγRIIa type H, His at …)
Experiment: SPR (Biacore), antibody captured on antigen peptide chip, FcγR as analyte; relative to GpH7-A5/GpH7-B3/GpL16-k0 = 100

Row | Binder | He/Con_2aH (relative binding activity)
39 | B4 | 57.6 % of HeCon Ab (= 100)
40 | B5 | 37.7 % of HeCon Ab (= 100)
41 | B6 | 77.1 % of HeCon Ab (= 100)
42 | B7 | 53.5 % of HeCon Ab (= 100)
43 | B8 | 50.9 % of HeCon Ab (= 100)
44 | B9 | 114 % of HeCon Ab (= 100)
45 | B10 | 87.5 % of HeCon Ab (= 100)
46 | B11 | 45.9 % of HeCon Ab (= 100)
47 | B12 | 59.5 % of HeCon Ab (= 100)
48 | B13 | 84.6 % of HeCon Ab (= 100)
49 | B14 | 94.2 % of HeCon Ab (= 100)
50 | B15 | 33.3 % of HeCon Ab (= 100)
51 | B16 | 56.4 % of HeCon Ab (= 100)
52 | B17 | 112 % of HeCon Ab (= 100)
53 | B18 | 97 % of HeCon Ab (= 100)
54 | B19 | 59.8 % of HeCon Ab (= 100)
55 | B20 | 105 % of HeCon Ab (= 100)

Molecular target: T3, FcγRIIb, extracellular domain with …
Experiment: as above

Row | Binder | He/Con_2b (relative binding activity)
56 | B4 | 80 % of HeCon Ab (= 100)
57 | B5 | 50.7 % of HeCon Ab (= 100)
58 | B6 | 232 % of HeCon Ab (= 100)
59 | B7 | 73.2 % of HeCon Ab (= 100)
60 | B8 | 70.4 % of HeCon Ab (= 100)
61 | B9 | 206 % of HeCon Ab (= 100)
62 | B10 | 221 % of HeCon Ab (= 100)
63 | B11 | 115 % of HeCon Ab (= 100)
64 | B12 | 123 % of HeCon Ab (= 100)
65 | B13 | 204 % of HeCon Ab (= 100)
66 | B14 | 119 % of HeCon Ab (= 100)
67 | B15 | 102 % of HeCon Ab (= 100)
68 | B16 | 110 % of HeCon Ab (= 100)
69 | B17 | 181 % of HeCon Ab (= 100)
70 | B18 | 144 % of HeCon Ab (= 100)
71 | B19 | 218 % of HeCon Ab (= 100)
72 | B20 | 140 % of HeCon Ab (= 100)
